{"source": "the DeepSol protein solubility set"}
{"assay": "soluble on expression in E. coli; label from the status in PepcDB or PDB records"}
{"sequence": "MKFAIIIPFYNAEKRLALSIDSIIKQTYSFLKHVEVLLINDGSTDRSSAIAHSYAEKYPSNIRVFDVPNGGPSKARNIGIHNVQEDTDFVGFLDADDLLSPNMLFSMVNFLEKSAVNMLVPAFYYLDDFGKKQKISPHKLNDRFTNGNRVVAIEKEPQAIHFYIGGTFFRFESLKQFVFDETLNFAEDQLLITKFLLENRSYGLIADAGYYYYRDLKQKGSLVSSAWKQPERYTPFLQKVYQTYLTNSKEIFGEVIPYVQYLIAYHAKLFFYKENIYFKEVLNEQEQEIFVRELQKILQEVGPEMIVALDTPLVVKEMMLSILRNGWPVQFKTAELEEVPLVTVKENYRPGKAVTVELLLEEARETLSDGGEFFASTSVGTAQTKVVKRKTAQTIWDIVVREEGTLEKVVTRLKPYQLKVQVFYQDKNQKITMTDLNVIKSVLGKLKRNKALKRKFKQGGVSLEHHHHHH", "soluble on expression in E. coli": "soluble"}
{"sequence": "MKFAVIGNPISHSLSPLMHHANFQSLNLENTYEAINVPVNQFQDIKKIISEKSIDGFNVTIPHKERIIPYLDDINEQAKSVGAVNTVLVKDGKWIGYNTDGIGYVNGLKQIYEGIEDAYILILGAGGASKGIANELYKIVRPTLTVANRTMSRFNNWSLNINKINLSHAESHLDEFDIIINTTPAGMNGNTDSVISLNRLASHTLVSDIVYNPYKTPILIEAEQRGNPIYNGLDMFVHQGAESFKIWTNLEPDIKAMKNIVIQKLKGELLEHHHHHH", "soluble on expression in E. coli": "soluble"}
{"sequence": "MKFDPQKYRELAEKDFEAAWKAGKEILAERSPNELYPRVGFSFGKEHPLFATIQRLREAYLSIGFSEVVNPLIVEDVHVKKQFGREALAVLDRCFYLATLPKPNVGISAEKIRQIEAITKREVDSKPLQEIFHRYKKGEIDGDDLSYLIAEVLDVDDITAVKILDEVFPEFKELKPISSTLTLRSHMTTGWFITLSHIADKLPLPIKLFSIDRCFRREQGEDATRLYTYFSASCVLVDEELSVDDGKAVAEALLRQFGFENFRFRKDEKRSKYYIPDTQTEVFAFHPKLVGSSTKYSDGWIEIATFGIYSPTALAEYDIPYPVMNLGLGVERLAMILYGYDDVRKMVYPQIHGEIKLSDLDIAREIKVKEVPQTAVGLKIAQSIVETAEKHASEPSPCSFLAFEGEMMGRNVRVYVVNENENTKLCGPAYANEVVVYKGDIYGIPKTKKWRSFFEEGVPTGIRYIDGFAYYAARKVEEAAMREQEEVKVKARIVENLSDINLYIHENVRRYILWKKGKIDVRGPLFVTVKAEIE", "soluble on expression in E. coli": "soluble"}
{"sequence": "MKFDRHRRLRSSATMRDMVRENHVRKEDLIYPIFVVEKDDVKKEIKSLPGVYQISLNLLESELKEAYDLGIRAIMFFGVPNSKDDIGTGAYIHDGVIQQATRIAKKMYDDLLIVADTCLCEYTDHGHCGVIDDHTHDVDNDKSLPLLVKTAISQVEAGADIIAPSNMMDGFVAEIRRGLDEAGYYNIPIMSYGVKYASSFFGPFRDAADSAPSFGDRKTYQMDPANRLEALRELESDLKEGCDMMIVKPALSYLDIVRDVKNHTNVPVVAYNVSGEYSMTKAAAQNGWIDEERVVMEQMVSMKRAGADMIITYFAKDICRYLDK", "soluble on expression in E. coli": "not soluble"}
{"sequence": "MKFVSIISNSRMLFLFLLITAKSDRESCLYIFDENIRGVNITPTFVSTRAKGLFDLFIKKLRSRVALSFFLLKRKIKLEETIVYGADHLSHSLLFLKKCSFFLIEDGTENYHQKSYKRSWKNKLFSIPKFGMYKNVKRIYLTKRENVPDCIKSKVEYINIKDLWFKKTEEEKLEILYLLGIDMKKIQLLIGEPFILFTQPLSEDYILTENEKIELYKSIIDKYDASKLVIKPHPREKTDYSRIFPNVKVFDETYPSEVLDILEVKFSRVITLFSTAAFSYPKEKVDFYGTKIHPKLLAKFGNIEYE", "soluble on expression in E. coli": "not soluble"}
{"sequence": "MKGEIEGITDDGIGVRVIDKNGFEHKIEMLFDGEIVYHHQKGYPDNPKERTNEEDESVAQARRFARYHVYREKGYDTVPNPDNPDRIAAVLLALIGLDDQQFDQYFGMLYEQMASHERADVAPVLDLPQEVYSEEFIVYKQNVYLEESLDAMQDQLTQPATEVFGEENLQEFLQETGDGLVAKARSLVGGGTDEDEDASEEPSIPEADLSIADVSGLDTMYSTPEGYKTIEGEDPVSREPDARIETLPMGYTREQFRYHVGHNLICQIRDCFISMGVEPPAQYRLLGHGKFKYSAKYRDFDFYPDYWDYEANIPGYSSPV", "soluble on expression in E. coli": "not soluble"}
{"sequence": "MKGGDRAYTRGPSLGWLFAKCCCCFPCRDAYSHSSSENGGKSESVANLQAQPSLNSIHSSPGPKRSTNTLKKWLTSPVRRLNSGKADGNIKKQKKVRDGRKSFDLGSPKPGDETTPQGDSADEKSKKGWGEDEPDEESHTPLPPPMKIFDNDPTQDEMSSSLLAARQASTEVPTAADLVNAIEKLVKNKLSLEGSSYRGSLKDPAGCLNEGMAPPTPPKNPEEEQKAKALRGRMFVLNELVQTEKDYVKDLGIVVEGFMKRIEEKGVPEDMRGKDKIVFGNIHQIYDWHKDFFLAELEKCIQEQDRLAQLFIKHERKLHIYVWYCQNKPRSEYIVAEYDAYFEEVKQEINQRLTLSDFLIKPIQRITKYQLLLKDFLRYSEKAGLECSDIEKAVELMCLVPKRCNDMMNLGRLQGFEGTLTAQGKLLQQDTFYVIELDAGMQSRTKERRVFLFEQIVIFSELLRKGSLTPGYMFKRSIKMNYLVLEENVDNDPCKFALMNRETSERVVLQAANADIQQAWVQDINQVLETQRDFLNALQSPIEYQRKERSTAVMRSQPARLPQASPRPYSSVPAGSEKPPKGSSYNPPLPPLKISTSNGSPGFEYHQPGDKFEASKQNDLGGCNGTSSMAVIKDYYALKENEICVSQGEVVQVLAVNQQNMCLVYQPASDHSPAAEGWVPGSILAPLTKATAAESSDGSIKKSCSWHTLRMRKRAEVENTGKNEATGPRKPKDILGNKVSVKETNSSEESECDDLDPNTSMGILNPNFIQEVAPEFLVPLVDVTCLLGDTVILQCKVCGRPKPTITWKGPDQNILDTDNSSATYTVSSCDSGEITLKICNLMPQDSGIYTCIATNDHGTTSTSATVKVQGVPAAPNRPIAQERSCTSVILRWLPPSSTGNCTISGYTVEYREEGSQIWQQSVASTLDTYLVIEDLSPGCPYQFRVSASNPWGISLPSEPSEFVRLPEYDAAADGATISWKENFDSAYTELNEIGRGRFSIVKKCIHKATRKDVAVKFVSKKMKKKEQAAHEAALLQHLQHPQYITLHDTYESPTSYILILELMDDGRLLDYLMNHDELMEEKVAFYIRDIMEALQYLHNCRVAHLDIKPENLLIDLRIPVPRVKLIDLEDAVQISGHFHIHHLLGNPEFAAPEVIQGIPVSLGTDIWSIGVLTYVMLSGVSPFLDESKEETCINVCRVDFSFPHEYFCGVSNAARDFINVILQEDFRRRPTAATCLQHPWLQPHNGSYSKIPLDTSRLACFIERRKHQNDVRPIPNVKSYIVNRVNQGT", "soluble on expression in E. coli": "soluble"}
{"sequence": "MKIAHISDLHVKCEWYEDRLGNNLVKYLNAQKPDLLIITGDLTDYGYYAEYKRAYSFLELIEVEKRVVVPGNHDARNEGYELFEEFFGTRMPYYEDEYMVIIGMDSSLPDREEGHIGRKGYKFLRETLKDKGDKLKIVALHHHVVPIPATGSDLAILTDAGNLMKVVDELGVELVLTGHKHKAWVWKLNETYYVTAGTATTRRLKAKDYPSFYMLYLEDEKNIRMEKVNTETLKVEEVYTLNFEEGKER", "soluble on expression in E. coli": "not soluble"}
{"sequence": "MKIAIEGCMHGDLDNVYKTIQHYEQIHNTKVDLLLCCGDFQAVRNEKDMDSLNVPRKYREMKSFWKYYSGQEVAPIPTIFIGGNHEASNYLWELYYGGWAATNIYFLGFAGVVKFGNVRIGGLSGIYNERHYRSGHFERPPYNESTIRSVYHVRDYDVQKLMQLEEPLDIFLSHDWPVGITDYGDSESLMRQKPYFRQEIEEKTLGSKPAALLLEKLKPQYWFSAHLHCKFAAAVQHGNDGSVTKFLALDKCLPGKKFLQIIEIESEPGPFEVLYDEEWLAITRKFNSIFPLTRRYTNVRYTIPNKLPTKKWERTDIPASLAPSDTYSVKLFIYSFYLPIVMKLHQAPMTEMFSAVSRIKHVLLCIADLPTYDSEEIPIDDIDEIEEMEEAKADDHTRDDA", "soluble on expression in E. coli": "soluble"}
{"sequence": "MKIAITGATGFVGQRLVERLQAEGHELRILSQRPTVAQQLTGCQVFDTATETSWLAALEGADAVVNLAGEPIAEQRWTPAQKQRLKNSRVQTTRALVTAITAATQKPQVLVTASAIGYYGTSETAQFTEESAAGQDYLAEICQAWEQEAQAVTVSGTRLVTLRIGIVVGPGGAIGKMLGPFKLFAGGPIGSGRQWVSWIQREDLVSLILEAIANPSYQGTYNATAPQAVRMADLSATLGEVLQRPSWLPVPAFALEALLGEGALLVLEGQQVLPKRLEAAGFQFRYPDLKSALQQFLPLEHHHHHH", "soluble on expression in E. coli": "not soluble"}
{"sequence": "MKIATYNVRVDTEYDQDWQWSFRKEAVCQLINFHDWSLCCIQEVRPNQVRDLKAYTTFTCLSAEREGDGQGEGLAILYNEQKVQAIDTGYFWLSETPQQPSIHPEAGCPRIALWGLFKETTQNTPFLVINVHLDHISAHARLAGMTVILEELHDKIAQYPTLLMGDFNAESGEEVHQLVQKKFQDSKNLATHYGPRGTFQNFTYTKPWAELEEIDYIYVKGWQVQQTASLTDSIDGRFPSDHFPLEAEVAGENLYFQ", "soluble on expression in E. coli": "soluble"}
{"sequence": "MKIEEGKVVIWHAMQPNELEVFQSLAEEYMALCPEVEIVFEQKPNLEDALKAAIPTGQGPDLFIWAHDWIGKFAEAGLLEPIDEYVTEDLLNEFAPMAQDAMQYKGHYYALPFAAETVAIIYNKEMVSEPPKTFDEMKAIMEKYYDPANEKYGIAWPINAYFISAIAQAFGGYYFDDKTEQPGLDKPETIEGFKFFFTEIWPYMAPTGDYNTQQSIFLEGRAPMMVNGPWSINDVKKAGINFGVVPLPPIIKDGKEYWPRPYGGVKLIYFAAGIKNKDAAWKFAKWLTTSEESIKTLALELGYIPVLTKVLDDPEIKNDPVIYGFGQAVQHAYLMPKSPKMSAVWGGVDGAINEILQDPQNADIEGILKKYQQEILNNMQG", "soluble on expression in E. coli": "soluble"}
{"sequence": "MKIEEVRFGLVKIDGKEFDHDIVIYPSGRIERRMKEISKKKHGTSHKLDPEELEKYLVEDFDVLLVGTGIYGMLSLLPESKKLVEDKEVIEKPTKEALKLLEELWGKKRILAIIHVTC", "soluble on expression in E. coli": "soluble"}
{"sequence": "MKIFIVGSTGRVGKSLLKSLSTTDYQIYAGARKVEQVPQYNNVKAVHFDVDWTPEEMAKQLHGMDAIINVSGSGGKSLLKVDLYGAVKLMQAAEKAEVKRFILLSTIFSLQPEKWIGAGFDALKDYYIAKHFADLYLTKETNLDYTIIQPGALTEEEATGLIDINDEVSASNTIGDVADTIKELVMTDHSIGKVISMHNGKTAIKEALESLLEHHHHHH", "soluble on expression in E. coli": "soluble"}
{"sequence": "MKIGFIGVGKMASAIITGLKKTDFELIISDSSLKAGQDKAEALGVAVAQSHQELVDEVDLLVLGVKPQVLASVLNPLILTKPILSMAAGTSLEYLDKLSQADLPIIRIMPNLNAKILQSSTAICRNDKVSDQLFAIAKQITDSFGTTFEIAEKDFDTFTALAGSSPAYIALFIEAMSKAGLKHGFPKDLAFKIVSQTVLATTSNLIQGQEKPNDLIDKVSSPGGTTIAGLLDLEKTGFTASTISAIDATIDKSKNMLEHHHHHH", "soluble on expression in E. coli": "not soluble"}
{"sequence": "MKIGVFDSGVGGLSVLKSLYEARLFDEIIYYGDTARVPYGVKDKDTIIKFCLEALDFFEQFQIDMLIIACNTASAYALDALRAKAHFPVYGVIDAGVEATIKALHDKNKEILVIATKATIKSEEYQKRLLSQGYTNINALATGLFVPMVEEGIFEGDFLQSAMEYYFKNITTPDALILACTHFPLLGRSLSKYFGDKTKLIHSGDAIVEFLKERENIDLKNHKAKLHFYASSDVESLKNTAKIWLNLLRK", "soluble on expression in E. coli": "not soluble"}
